Starred links: 1 amine or outer side, 2 acyl side, 3 side chain; linkers in the order of their positions; H or OH if unused. Non-standard residues stand in square brackets, D forms with d. No end group written: not given here. hSer(OMe) = COCC[C@H](N[*:1])C(=O)[*:2]; 1Nal = N[C@@H](Cc1cccc2ccccc12)C(=O)O; β3hI = CC[C@H](C)[C@H](N)CC(=O)O; β3hR = N=C(N)NCCC[C@H](N)CC(=O)O; β3hF = N[C@H](CC(=O)O)Cc1ccccc1; β3hK = NCCCC[C@H](N)CC(=O)O; Nle = CCCC[C@H](N)C(=O)O; Aib = CC(C)(N)C(=O)O
B1: [Aib^1, Nle^8, hSer(OMe)^18, β-hLys^19, 1-Nal^23, Leu^27] hPTH (1-$$4)-NH2 (peptide)
peptide: [Aib]VSEIQL[Nle]HNLGKHLNS[hSer(OMe)][β3hK]RVE[1Nal]LRKLLQDVHNF-NH2
modifications: N-terminus assumed
SMILES: CCCC[C@H](NC(=O)[C@H](CC(C)C)NC(=O)[C@H](CCC(N)=O)NC(=O)[C@@H](NC(=O)[C@H](CCC(=O)O)NC(=O)[C@H](CO)NC(=O)[C@@H](NC(=O)C(C)(C)N)C(C)C)[C@@H](C)CC)C(=O)N[C@@H](Cc1c[nH]cn1)C(=O)N[C@@H](CC(N)=O)C(=O)N[C@@H](CC(C)C)C(=O)NCC(=O)N[C@@H](CCCCN)C(=O)N[C@@H](Cc1c[nH]cn1)C(=O)N[C@@H](CC(C)C)C(=O)N[C@@H](CC(N)=O)C(=O)N[C@@H](CO)C(=O)N[C@@H](CCOC)C(=O)N[C@@H](CCCCN)CC(=O)N[C@@H](CCCNC(=N)N)C(=O)N[C@H](C(=O)N[C@@H](CCC(=O)O)C(=O)N[C@@H](Cc1cccc2ccccc12)C(=O)N[C@@H](CC(C)C)C(=O)N[C@@H](CCCNC(=N)N)C(=O)N[C@@H](CCCCN)C(=O)N[C@@H](CC(C)C)C(=O)N[C@@H](CC(C)C)C(=O)N[C@@H](CCC(N)=O)C(=O)N[C@@H](CC(=O)O)C(=O)N[C@H](C(=O)N[C@@H](Cc1c[nH]cn1)C(=O)N[C@@H](CC(N)=O)C(=O)N[C@@H](Cc1ccccc1)C(N)=O)C(C)C)C(C)C

Key:
[1] = biological target: human parathyroid hormone receptor 1 (human, UniProt Q03431); assay: cell-based or functional assay
[2] = biological target: human parathyroid hormone receptor 2 (human, UniProt P49190); assay: cell-based or functional assay

Row | Binder | hPTHR-1 EC50 (nM), CRE-luciferase reporter gene assay [1] | hPTHR-2 EC50 (nM), luciferase reporter gene assay [2]
1 | SVSEIQL[Nle]HNLGKHLKS[β3hI]ERVE[1Nal]LRKLLQRVHEF-NH2 [[Nle^8, Lys^16, β-hIle^18, 1-Nal^23, Leu^27, Arg^30, Glu^33] hPTH (1-34)-NH2] | 0.09 nM | 14 nM
2 | SVSEIQL[Nle]HNLGKHLNS[β3hF]ERVE[1Nal]LRKLLQDVHNF-NH2 [[Nle^8, β-hPhe^18, 1-Nal^23, Leu^27] hPTH (1-34)-NH2] | 0.11 nM | 10 nM
3 | SVSEIQL[Nle]HNLGKHLKS[β3hI]ERVE[1Nal]LRKLLQRVHNF-NH2 [[Nle^8, Lys^16, β-hIle^18, 1-Nal^23, Leu^27, Arg^30] hPTH (1-34)-NH2] | 0.14 nM | 14 nM
4 | SVSEIQL[Nle]HSLGKHLKS[β3hI]ERVE[1Nal]LRKLLQRVHEE-NH2 [[Nle^8, Ser^10, Lys^16, β-hIle^18, 1-Nal^23, Leu^27, Arg^30, Glu^33, Glu^34] hPTH (1-34)-NH2] | 0.04 nM | 6 nM
5 | [Aib]VSEIQL[Nle]HNLGKHLNS[β3hF]ERVE[1Nal]LRKLLQDVHNF-NH2 [[Aib^1, Nle^8, β-hPhe^18, 1-Nal^23, Leu^27 hPTH (1-34)-NH2] | 0.06 nM | 5 nM
6 | SVSEIQL[Nle]HSLGKHLKS[β3hI]ERVE[1Nal]LRKLLQRV-NH2 [[Nle^8, Ser^10, Lys^16, β-hIle^18, 1-Nal^23, Leu^27, Arg^30] hPTH (1-31)-NH2] | 0.08 nM | 7 nM
7 | [Aib]VSEIQL[Nle]HNLGKHLNS[β3hR]ERVE[1Nal]LRKLLQDVHNF-NH2 [[Aib^1, Nle^8, β-hArg^18, 1-Nal^23, Leu^27] hPTH (1-34)-NH2] | 0.05 nM | 16 nM
8 | B1 | 0.05 nM | 3 nM

Reference: patent US20110195900A1, “PEPTIDIC PTH RECEPTOR AGONISTS” (FERRING B.V., priority 2008, published 2011)
